The record followed here is publication PMC4546571 (Chemistry & biology, 2015).

This data set deals with the molecule itself. Nature of the data set: seeded fibril assembly followed by ThT fluorescence.

Consider GIHKQKEKSRLQGGVLVNEILNHMKRATQIPSYKKLIMY (peptide, UniProt P15309 248-286, looked up) [PAP248-286], for which the binding result is on record as “binds”.
